Test results: patent US20130011380A1 (published 2013)

Key:
Experiment in all cases: anti-Flag IP-MS, mES nuclear extract
Lmo7 = Lmo7 (mouse, UniProt E9PYF4 24-1649)
Excerpt: (§1) Mass spectrometry was used to identify the potential interactors of AID and understand the functional molecular players that orchestrate mammalian DNA demethylation. The following AID constructs were used: 1) human AID containing two tandem Flag tags at the N-terminus of the protein, cloned into the pHAGE-STEMCCA lentiviral vector, and 2) human AID containing two tandem Flag tags at the C-terminus of the protein, cloned into the pHAGE-STEMCCA lentiviral vector. Virus containing these constructs was subsequently used to infect mouse embryonic stem cells (CGR8), and stable cell lines overexpressing Flag-human AID were selected. As a control, the lentiviral vector containing only the 2× Flag tag was used.
(§2) The stable ES cell lines expressing AID and Control 2× Flag were fractionated into cytoplasmic and nuclear extracts for immunoprecipitating the AID protein using an antibody against the Flag tag. The resulting complex was subjected to mass spectrometric analyses.
(§3) TABLE 5 After immunoprecipitation, AID and the interacting proteins were identified by mass spectrometry (MS). All proteins were subjected to trypsin digestion to break them down into smaller peptides, and run through a mass spectrometer. Column C indicates the number of unique peptides of a particular protein detected by MS analysis, to be associated with the AID-Flag protein. Column D represents the number of peptides associated with the Flag only protein. The higher the number of unique peptides (>3) that are associated with AID, but not with the Flag protein, the stronger the indication of the specificity of the interaction. Columns E and F represent the associated spectra i.e. the frequency of these peptides detected in association with the AID protein as a measure of the abundance of the associated protein.

Tmpo = Tmpo (mouse)
Excerpt: as §1, §2, §3

Tip2 = molecular target: T1, Tip2 (mouse)
T1 construct: Gene name as printed; possibly a misprint, not resolved
Excerpt: as §1, §2, §3

Sequence of Lmo7 (E9PYF4 entry or part of it): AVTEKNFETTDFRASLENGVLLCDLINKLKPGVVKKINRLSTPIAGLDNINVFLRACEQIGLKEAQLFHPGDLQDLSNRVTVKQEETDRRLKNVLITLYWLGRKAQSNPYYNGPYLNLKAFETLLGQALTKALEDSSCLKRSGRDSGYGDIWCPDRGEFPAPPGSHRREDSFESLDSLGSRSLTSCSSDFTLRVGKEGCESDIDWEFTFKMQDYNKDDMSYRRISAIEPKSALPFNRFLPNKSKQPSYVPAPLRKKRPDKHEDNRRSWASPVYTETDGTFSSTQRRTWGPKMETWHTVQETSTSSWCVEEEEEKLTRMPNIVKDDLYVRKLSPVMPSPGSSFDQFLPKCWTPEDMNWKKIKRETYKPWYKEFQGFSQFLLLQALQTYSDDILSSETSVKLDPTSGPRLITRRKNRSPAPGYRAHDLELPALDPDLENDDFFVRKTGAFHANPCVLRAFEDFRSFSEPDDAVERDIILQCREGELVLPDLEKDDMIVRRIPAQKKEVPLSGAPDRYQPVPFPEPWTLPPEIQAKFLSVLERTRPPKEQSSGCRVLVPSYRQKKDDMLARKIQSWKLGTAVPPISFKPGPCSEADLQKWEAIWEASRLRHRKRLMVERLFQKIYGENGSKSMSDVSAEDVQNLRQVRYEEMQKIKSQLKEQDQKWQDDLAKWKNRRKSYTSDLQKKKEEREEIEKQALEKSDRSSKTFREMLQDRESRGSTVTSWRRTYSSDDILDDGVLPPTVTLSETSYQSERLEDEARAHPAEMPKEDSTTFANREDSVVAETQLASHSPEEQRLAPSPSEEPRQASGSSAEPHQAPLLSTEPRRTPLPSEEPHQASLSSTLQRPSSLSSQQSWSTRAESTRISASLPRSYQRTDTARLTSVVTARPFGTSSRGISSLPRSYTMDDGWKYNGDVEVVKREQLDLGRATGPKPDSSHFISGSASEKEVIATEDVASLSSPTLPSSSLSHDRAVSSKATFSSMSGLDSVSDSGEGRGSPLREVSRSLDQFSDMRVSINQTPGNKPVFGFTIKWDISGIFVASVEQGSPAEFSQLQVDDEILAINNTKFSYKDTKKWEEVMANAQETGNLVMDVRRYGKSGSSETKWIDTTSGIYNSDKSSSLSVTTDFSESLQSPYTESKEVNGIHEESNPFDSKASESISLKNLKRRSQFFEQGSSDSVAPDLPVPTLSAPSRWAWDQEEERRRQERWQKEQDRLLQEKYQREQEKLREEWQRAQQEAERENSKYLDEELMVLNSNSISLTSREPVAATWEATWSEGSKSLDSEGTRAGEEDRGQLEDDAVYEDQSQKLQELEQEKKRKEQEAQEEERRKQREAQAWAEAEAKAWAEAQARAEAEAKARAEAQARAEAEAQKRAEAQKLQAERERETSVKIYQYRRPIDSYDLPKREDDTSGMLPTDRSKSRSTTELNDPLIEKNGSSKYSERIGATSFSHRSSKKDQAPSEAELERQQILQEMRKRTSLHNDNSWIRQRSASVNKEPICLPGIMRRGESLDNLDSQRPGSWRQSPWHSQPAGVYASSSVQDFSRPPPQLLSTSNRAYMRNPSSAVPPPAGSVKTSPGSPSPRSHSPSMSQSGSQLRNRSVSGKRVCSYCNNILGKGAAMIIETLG
T1 sequence (Q9Z0U1 whole entry): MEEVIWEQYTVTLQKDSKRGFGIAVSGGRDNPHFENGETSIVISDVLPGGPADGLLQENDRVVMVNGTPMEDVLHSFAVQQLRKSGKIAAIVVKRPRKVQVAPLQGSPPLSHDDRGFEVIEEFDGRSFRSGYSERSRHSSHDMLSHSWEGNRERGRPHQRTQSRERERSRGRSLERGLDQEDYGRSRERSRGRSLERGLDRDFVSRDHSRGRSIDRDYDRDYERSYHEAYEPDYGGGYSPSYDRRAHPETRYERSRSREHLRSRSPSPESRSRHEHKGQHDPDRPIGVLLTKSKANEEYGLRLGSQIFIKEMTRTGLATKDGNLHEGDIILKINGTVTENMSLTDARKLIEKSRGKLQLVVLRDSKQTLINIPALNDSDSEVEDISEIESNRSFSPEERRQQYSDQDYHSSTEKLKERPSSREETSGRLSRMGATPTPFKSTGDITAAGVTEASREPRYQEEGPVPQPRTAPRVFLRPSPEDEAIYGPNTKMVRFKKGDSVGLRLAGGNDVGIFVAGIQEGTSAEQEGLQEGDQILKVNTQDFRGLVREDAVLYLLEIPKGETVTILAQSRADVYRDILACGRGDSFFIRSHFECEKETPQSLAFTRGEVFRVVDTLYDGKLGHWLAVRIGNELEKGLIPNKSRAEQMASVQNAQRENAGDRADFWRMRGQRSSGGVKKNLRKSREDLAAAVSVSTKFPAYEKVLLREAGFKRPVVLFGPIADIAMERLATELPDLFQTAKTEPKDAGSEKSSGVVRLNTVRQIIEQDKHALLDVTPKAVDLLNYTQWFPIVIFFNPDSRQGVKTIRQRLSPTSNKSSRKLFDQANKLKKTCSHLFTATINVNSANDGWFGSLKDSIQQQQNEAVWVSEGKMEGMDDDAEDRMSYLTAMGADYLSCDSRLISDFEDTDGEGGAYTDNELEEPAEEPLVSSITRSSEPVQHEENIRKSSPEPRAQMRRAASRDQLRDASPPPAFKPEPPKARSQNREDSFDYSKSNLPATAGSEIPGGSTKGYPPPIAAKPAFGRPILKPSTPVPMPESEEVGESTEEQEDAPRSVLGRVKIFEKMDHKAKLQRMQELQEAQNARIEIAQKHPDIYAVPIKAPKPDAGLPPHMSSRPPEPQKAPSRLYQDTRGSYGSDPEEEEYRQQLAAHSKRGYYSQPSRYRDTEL

B1: human AID containing two tandem Flag tags (Flag-human AID) (enzyme, UniProt Q9GZX7 1-198, looked up)
chain: MDSLLMNRRKFLYQFKNVRWAKGRRETYLCYVVKRRDSATSFSLDFGYLRNKNGCHVELLFLRYISDWDLDPGRCYRVTWFTSWSPCYDCARHVADFLRGNPNLSLRIFTARLYFCEDRKAEPEGLRRLHRAGVQIAIMTFKDYFYCWNTFVENHERTFKAWEGLHENSVRLSRQLRRILLPLYEVDDLRDAFRTLGL
notes: Stably overexpressed in mouse ES cells (CGR8) from the pHAGE-STEMCCA lentiviral vector; Two constructs (N-terminal or C-terminal 2x Flag) were made; also called AID-Flag protein; not shown: two tandem Flag tags
- Nucleus peptide (Lmo7): 15 peptides
- Nucleus spectra (Lmo7): 31 spectra
- Nucleus peptide (Tmpo): 4 peptides
- Nucleus spectra (Tmpo): 16 spectra
- Nucleus peptide (Tip2): 16 peptides
- Nucleus spectra (Tip2): 36 spectra
